Reference: patent US11155612 (CENTRO DE INVESTIGACI N CIENT FICA Y DE EDUCACI N SUPERIOR …, dated 2021)
Where a chain is given by its changes, count along the chain named. Names and notes keep the numbering of the source.

B1: vNAR V13 (parental sequence) (other)
chain: ASLDQTPRTATRETGESLSINCVLTDTSHILFGTKWLWNNPGSTDWESITIGGRYAESVNNQAKSFSLQIKDLTVEDSGTYYCKAQTIGRRKNLLPRPLVNGIAAMGYSSSDYDGAGTVLTVN
B2: vNAR R97A (clone M4) (other)
chain: B1 chain with R97A
B3: vNAR P98Y (clone M1), anti-VEGF vNAR of SEQ ID NO:1 (other)
chain: B1 chain with P98Y

Target: VEGF (added at 4 ng/ml in the HUVEC/NHDF angiogenesis assay)
Assay: cell-based or functional assay

Sequence of VEGF (added at 4 ng/ml in the HUVEC/NHDF angiogenesis assay) (P15692 whole entry): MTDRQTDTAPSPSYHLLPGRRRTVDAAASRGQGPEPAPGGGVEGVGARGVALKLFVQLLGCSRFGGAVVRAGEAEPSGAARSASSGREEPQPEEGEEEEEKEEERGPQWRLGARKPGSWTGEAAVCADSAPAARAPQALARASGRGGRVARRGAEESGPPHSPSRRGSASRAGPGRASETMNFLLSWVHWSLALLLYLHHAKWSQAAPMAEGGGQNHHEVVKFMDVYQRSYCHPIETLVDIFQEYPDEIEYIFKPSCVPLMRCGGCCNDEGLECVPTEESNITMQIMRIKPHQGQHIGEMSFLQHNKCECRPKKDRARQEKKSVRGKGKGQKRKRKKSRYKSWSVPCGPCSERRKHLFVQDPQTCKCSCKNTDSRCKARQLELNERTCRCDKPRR

| Binder | IC50 angiogenesis: network branching | IC50 angiogenesis: tube length |
| --- | --- | --- |
| B1 | 18 µg/mL | 18 µg/mL |
| B2 | 33 µg/mL | 21 µg/mL |
| B3 | 11 µg/mL | 9 µg/mL |
